Experimental findings from paper PMC5712427 are described below.

By stoichiometry N is commonly meant the number of molecules, sites or subunits per partner or assembly.

The target in the assay is Full length human APOBEC3G (human) (UniProt Q9HC16). Kind of assay: time-lapse high-speed AFM.

Substance “Full length human APOBEC3G (from UniProt Q9HC16 1-384) (enzyme)” yielded a stoichiometry N of 2.
